Earlier results on one substance are cited in PMC5319408.

The target of this data set is cytochrome P450cam (CYP101, oxidized) (Pseudomonas putida) (UniProt P00183).
Sequence of UniProt P00183 (P00183 2-415): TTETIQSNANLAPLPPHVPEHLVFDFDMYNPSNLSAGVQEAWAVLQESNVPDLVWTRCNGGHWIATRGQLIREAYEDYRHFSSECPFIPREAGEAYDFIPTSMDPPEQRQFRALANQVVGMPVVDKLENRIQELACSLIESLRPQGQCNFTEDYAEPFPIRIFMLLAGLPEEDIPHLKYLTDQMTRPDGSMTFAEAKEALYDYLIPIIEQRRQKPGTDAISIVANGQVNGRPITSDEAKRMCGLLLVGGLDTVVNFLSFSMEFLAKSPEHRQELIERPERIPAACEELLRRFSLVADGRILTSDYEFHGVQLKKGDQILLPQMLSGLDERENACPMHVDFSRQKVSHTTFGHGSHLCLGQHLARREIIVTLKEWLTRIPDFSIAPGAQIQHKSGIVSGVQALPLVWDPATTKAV

As a reminder, the Kd is the concentration at which binding is half-saturated. “putidaredoxin (oxidized) (from UniProt P00259)”: the Kd was 17 µM.
